Assay results: article doi:10.1101/2023.07.16.549228 (bioRxiv, 2023)

Target: the molecule itself
Test: transmission electron microscopy

B1: encapsulin from Thermotoga maritima (TmEnc) nanocage (natural protein)
chain: MEFLKRSFAPLTEKQWQEIDNRAREIFKTQLYGRKFVDVEGPYGWEYAAHPLGEVEVLSDENEVVKWGLRKSLPLIELRATFTLDLWELDNLERGKPNVDLSSLEETVRKVAEFEDEVIFRGCEKSGVKGLLSFEERKIECGSTPKDLLEAIVRALSIFSKDGIEGPYTLVINTDRWINFLKEEAGHYPLEKRVEECLRGGKIITTPRIEDALVVSERGGDFKLILGQDLSIGYEDREKDAVRLFITETFTFQVVNPEALILLKF
  binding result: binds

B2: Cy7-labelled TmEnc (TmEnc^Cy7) nanocage (natural protein, Thermotoga maritima)
chain: MEFLKRSFAPLTEKQWQEIDNRAREIFKTQLYGRKFVDVEGPYGWEYAAHPLGEVEVLSDENEVVKWGLRKSLPLIELRATFTLDLWELDNLERGKPNVDLSSLEETVRKVAEFEDEVIFRGCEKSGVKGLLSFEERKIECGSTPKDLLEAIVRALSIFSKDGIEGPYTLVINTDRWINFLKEEAGHYPLEKRVEECLRGGKIITTPRIEDALVVSERGGDFKLILGQDLSIGYEDREKDAVRLFITETFTFQVVNPEALILLKF
modifications: sulfo-Cy7 conjugated to lysine residues on the outer surface (~50 dye molecules per nanocage)
  binding result: binds
